According to patent US20250320309A1 (SHENGHE CHINA BIOPHARMACEUTICAL, published 2025):

T1: human CD24 (human, UniProt P25063 27-59)
T1 chain (looked up): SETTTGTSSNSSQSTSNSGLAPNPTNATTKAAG

B1: 1-D2-IgG4 (bispecific antibody)
heavy: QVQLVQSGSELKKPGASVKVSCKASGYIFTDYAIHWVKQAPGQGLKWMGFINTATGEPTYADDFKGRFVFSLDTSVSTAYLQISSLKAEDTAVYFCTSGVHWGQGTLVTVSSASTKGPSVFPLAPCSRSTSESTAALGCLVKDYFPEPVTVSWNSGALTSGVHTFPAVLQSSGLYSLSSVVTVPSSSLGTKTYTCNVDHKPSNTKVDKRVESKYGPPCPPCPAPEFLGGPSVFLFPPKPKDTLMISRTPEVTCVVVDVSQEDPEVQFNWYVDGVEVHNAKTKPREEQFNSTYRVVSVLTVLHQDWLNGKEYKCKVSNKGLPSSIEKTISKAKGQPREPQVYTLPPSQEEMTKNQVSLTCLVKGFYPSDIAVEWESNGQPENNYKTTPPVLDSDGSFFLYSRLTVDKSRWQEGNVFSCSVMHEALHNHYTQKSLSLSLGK
light: DIQMTQSPSTLSASVGDRVTITCSASSSVSSMHWYQQKPGKAPKLLIYSTSNLASGVPSRFSGSGSGTEYTLTISSLQPDDFATYYCHHWTSYMYTFGGGTKVEIKRTVAAPSVFIFPPSDEQLKSGTASVVCLLNNFYPREAKVQWKVDNALQSGNSQESVTEQDSKDSTYSLSSTLTLSKADYEKHKVYACEVTHQGLSSPVTKSFNRGECGGGGSGGGGSQVQLQESGPGLVKPSETLSLTCTVSGSSLTSYGVHWVRQPPGKCLEGLGVIWPGGSTNYNSALMSRVTISKDNSKSQVSLKMSSLTAADTAVYYCARVTGTWYFDVWGQGTTVTVSSGGGGSGGGGSGGGGSDIQMTQSPSSLSASLGDRVTISCSASQGISNYLNWYQQKPDGTVKLLIYYTSTLHSGVPSRFSGSGSGTDYTLTISSLQPEDIATYYCQQYSKLPWTFGCGTKLEIK
B2: 1-C2-IgG1 (bispecific antibody)
heavy: not shown
light: DIQMTQSPSTLSASVGDRVTITCSASSSVSSMHWYQQKPGKAPKLLIYSTSNLASGVPSRFSGSGSGTEYTLTISSLQPDDFATYYCHHWTSYMYTFGGGTKVEIKRTVAAPSVFIFPPSDEQLKSGTASVVCLLNNFYPREAKVQWKVDNALQSGNSQESVTEQDSKDSTYSLSSTLTLSKADYEKHKVYACEVTHQGLSSPVTKSFNRGEC

Biological target: T1, human CD24
Assay: cell-based or functional assay

Binder	ADCP: phagocytosis of CD24-SKOV3 cells by macrophages, EC50 [pM]	ADCP: phagocytosis of MCF-7 cells by macrophages, EC50 [pM]
B1	4	2
B2	13	4
